Measurements as given in patent US20180170997A1 (NATIONAL CANCER CENTER, published 2018).

Assays:
[1] = target: T1, AITR on AITR-overexpressed Jurkat cells (CD5L-AITR-TM-ECD) (human, UniProt Q9Y5U5 26-183, limits assumed); assay: flow cytometry on AITR-overexpressed Jurkat cells
T1 construct: domain: transmembrane domain (TM)-ECD; also called pcDNA3.1(+)/CD5L-AITR-TM-ECD
T1 sequence (looked up): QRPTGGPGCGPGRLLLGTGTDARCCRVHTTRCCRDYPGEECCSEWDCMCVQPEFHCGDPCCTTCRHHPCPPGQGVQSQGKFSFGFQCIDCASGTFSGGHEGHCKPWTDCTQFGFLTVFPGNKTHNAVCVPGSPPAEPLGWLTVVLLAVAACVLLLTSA
Description: In the flow cytometry experiment, the present inventors used fluorochrome-conjugated antibodies against CD4, CDS, CD11c, IFN-γ, Foxp3, CTLA-4, CD62L, CD45RO, CD45RA (BD Bioscience), CD19, CD56, CD14, CD127, IL-4, IL-17A, GATA-3, T-bet, RORγt (ebioscience, San Diego, Calif.), and BDCA-2 (Miltenyi Biotec). […] Intracellular level of cytokines was measured after 5 hour-long pre-incubation with 50 ng/ml phorbol 12-myristate 13-acetate (PMA), 10 μg/ml ionomycin, and 10 μg/ml Brefeldin A (Sigma-Aldrich, St Louis. Mo.). FACSCalibur flow cytometer (BD Bioscience) was used for all of the flow cytometry analysis and WinMDI software (Ver. 2.9, Scripps. Institute) was used for data analysis.
For generating AITR-overexpressing cells, the gene fragment encoding AITR-transmembrane domain (TM)-ECD was inserted in-frame with CD5L sequence in a mammalian vector pcDNA3.1(⁺), i.e. pcDNA3.1(⁺)/CD5L-AITR-TM-ECD. Then pcDNA3.1(⁺)/Empty vector or pcDNA3.1(⁺)/CD5L-AITR-TM-ECD vector was transient transfected into Jurkat cells by electroporation. AITR expression on cell surface was detected by staining with biotin-conjugated anti-AITR mAb.

[2] = target: T2, activation-inducible tumor necrosis factor receptor (AITR) on human T cells (human, UniProt Q9Y5U5 26-241); assay: flow cytometry on stimulated PBMC subsets
T2 construct: whole, on cells; also called GITR; TNFRSF18
T2 sequence (looked up): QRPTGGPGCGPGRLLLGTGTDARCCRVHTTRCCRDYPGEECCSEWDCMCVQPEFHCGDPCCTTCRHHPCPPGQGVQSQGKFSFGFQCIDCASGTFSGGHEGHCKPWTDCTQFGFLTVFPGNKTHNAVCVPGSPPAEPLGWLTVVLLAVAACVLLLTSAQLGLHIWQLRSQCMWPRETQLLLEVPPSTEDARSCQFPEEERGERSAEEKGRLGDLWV

B1: anti-AITR mAb B32 (antibody, V domains shown)
VH: EVQLLESGGGLIQPGGSLRLSCAASGFTFSTYGMSWVRQAPGKGLEWVSGITGSAGGGSTNYADSVKGRFTISRDNSKNTLYLQMNSLRAEDTAVYYCAKGYSSNWRSAFDIWGQGTMVTVSS
VL: SYELMQPPSVSVSPGQTAGITCSGDALPKQYAYWYQQRPGQAPVLLIYKDTERPSGIPERFSGSSSGTTVTLTISGVQAEDEADYYCQSADSSGTYPVFGGGTKLTVL
notes: also called clone B32
binding result [1]: binds
binding result [2]: binds
